The values that follow come from the supplement of paper PMC11246515.

This series is described as follows: total protein half-life in vivo (active degradation + dilution); higher = more stable protein.
[1] abbreviates: E. coli NCM3722 delta-clpP delta-lon delta-hslV, growth: N-lim chemostat, doubling time 6 h.
Where [2] appears, read: E. coli NCM3722 delta-hslV, growth: N-lim chemostat, doubling time 6 h.
Where [3] appears, read: E. coli NCM3722 delta-lon, growth: N-lim chemostat, doubling time 6 h.
Setting [4] is: E. coli NCM3722 delta-smpB, growth: N-lim chemostat, doubling time 6 h.
The mark [5] stands for this setting: wild type E. coli NCM3722, growth: C-lim chemostat, doubling time 3 h.
[6] abbreviates: wild type E. coli NCM3722, growth: C-lim chemostat, doubling time 6 h.
The mark [7] stands for this setting: wild type E. coli NCM3722, growth: C-lim chemostat, doubling time 12 h.
The mark [8] stands for this setting: wild type E. coli NCM3722, growth: N-lim chemostat, doubling time 6 h.
Setting [9] is: wild type E. coli NCM3722, growth: N-lim chemostat, doubling time 12 h.
Setting [10] is: wild type E. coli NCM3722, growth: P-lim chemostat, doubling time 6 h.
[11] abbreviates: wild type E. coli NCM3722, growth: P-lim chemostat, doubling time 12 h.
Where [12] appears, read: E. coli NCM3722 delta-clpP, growth: N-lim chemostat, doubling time 6 h.

± gives the standard deviation of the averaged measurements.

In the case of “MAAKDRIQAIKQMVANDKKVTVSNLSGIFQVTEETIRRDLEKLEDEGFLTRTYGGAVLNTAMLTENIHFYKRASSFYEEKQLIARKALPFIDNKTTMAADSSSTVMELLKLLQDRSGLTLLTNSAEAIHVLAQSEIKVVSTGGELNKNTLSLQGRITKEIIRRYHVDIMVMSCKGLDINSGALDSNEAEAEIKKTMIRQATEVALLVDHSKFDRKAFVQLADFSHINYIITDKSPGAEWIAFCKDNNIQLVW”, the “total protein half-life in vivo” value stood at 5.6 ± 0.062 h under setting [1]; 5.31 ± 0.24 h under setting [2]; 5.25 ± 1.1 h under setting [3]; 5.12 ± 0.069 h under setting [4]; 2.93 ± 0.12 h under setting [5]; 5.96 ± 0.83 h under setting [6]. Further, the “total protein half-life in vivo” value reads like this: under setting [7], 9.64 ± 0.74 h; under setting [8], 5.5 ± 0.2 h; under setting [9], 9.92 ± 1.1 h; under setting [10], 5.45 ± 0.52 h; under setting [11], 13 ± 2.9 h.
Turning to “MTIKLIVGLANPGAEYAATRHNAGAWFVDLLAERLRAPLREEAKFFGYTSRVTLGGEDVRLLVPTTFMNLSGKAVAAMASFFRINPDEILVAHDELDLPPGVAKFKLGGGHGGHNGLKDIISKLGNNPNFHRLRIGIGHPGDKNKVVGFVLGKPPVSEQKLIDEAIDEAARCTEMWFTDGLTKATNRLHAFKAQ [P0A7D1]”, the “total protein half-life in vivo” value runs as follows: under setting [1], 5.126 ± 0.023 h; under setting [2], 4.76 ± 0.084 h; under setting [3], 5.04 ± 0.51 h; under setting [4], 4.54 ± 0.08 h; under setting [5], 3.19 ± 0.081 h; under setting [6], 6.09 ± 0.37 h. Moreover, the “total protein half-life in vivo” value reads like this: under setting [7], 10.5 ± 0.85 h; under setting [8], 4.81 ± 0.17 h; under setting [9], 8.06 ± 0.66 h; under setting [10], 5.91 ± 0.13 h; under setting [11], 11.4 ± 0.29 h.
With “MPQSALFTGIIPPVSTIFTADGQLDKPGTAALIDDLIKAGVDGLFFLGSGGEFSQLGAEERKAIARFAIDHVDRRVPVLIGTGGTNARETIELSQHAQQAGADGIVVINPYYWKVSEANLIRYFEQVADSVTLPVMLYNFPALTGQDLTPALVKTLADSRSNIIGIKDTIDSVAHLRSMIHTVKGAHPHFTVLCGYDDHLFNTLLLGGDGAISASGNFAPQVSVNLLKAWRDGDVAKAAGYHQTLLQIPQMYQLDTPFVNVIKEAIVLCGRPVSTHVLPPASPLDEPRKAQLKTLLQQLKLC”, under setting [2], the “total protein half-life in vivo” value is 3.07 h.
With “MSQPLLSVNGLMMRFGGLLAVNNVNLELYPQEIVSLIGPNGAGKTTVFNCLTGFYKPTGGTILLRDQHLEGLPGQQIARMGVVRTFQHVRLFREMTVIENLLVAQHQQLKTGLFSGLLKTPSFRRAQSEALDRAATWLERIGLLEHANRQASNLAYGDQRRLEIARCMVTQPEILMLDEPAAGLNPKETKELDELIAELRNHHNTTILLIEHDMKLVMGISDRIYVVNQGTPLANGTPEQIRNNPDVIRAYLGEA [P0A9S7]”, the “total protein half-life in vivo” value was found to be 6.52 ± 0.66 h under setting [1]; 6.12 ± 0.48 h under setting [12]; 6.06 ± 0.53 h under setting [2]; 6.07 ± 0.61 h under setting [3]; 5.74 ± 0.43 h under setting [4]; 3.12 ± 0.036 h under setting [5]. In addition, the “total protein half-life in vivo” value reads like this: under setting [6], 6.18 ± 0.31 h; under setting [7], 11.99 ± 0.11 h; under setting [8], 6.06 ± 0.2 h; under setting [9], 12.3 ± 0.36 h; under setting [10], 6.12 ± 0.34 h; under setting [11], 12.9 ± 0.69 h.
On to “MQALLLEQQDGKTLASVQTLDESRLPEGDVTVDVHWSSLNYKDALAITGKGKIIRNFPMIPGIDFAGTVRTSEDPRFHAGQEVLLTGWGVGENHWGGLAEQARVKGDWLVAMPQGLDARKAMIIGTAGFTAMLCVMALEDAGVRPQDGEIVVTGASGGVGSTAVALLHKLGYQVVAVSGRESTHEYLKSLGASRVLPRDEFAESRPLEKQVWAGAIDTVGDKVLAKVLAQMNYGGCVAACGLAGGFTLPTTVMPFILRNVRLQGVDSVMTPPERRAQAWQRLVADLPESFYTQAAKEISLSEAPNFAEAIINNQIQGRTLVKVN”, for which the “total protein half-life in vivo” value under setting [1] is 5.18 ± 0.35 h; the “total protein half-life in vivo” value under setting [12] is 5.271 ± 0.034 h; the “total protein half-life in vivo” value under setting [2] came to 5.7 ± 1.2 h; the “total protein half-life in vivo” value under setting [3] worked out at 5.67 ± 0.37 h; the “total protein half-life in vivo” value under setting [4] was found to be 4.6639 ± 0.0045 h; the “total protein half-life in vivo” value under setting [5] came to 3.03 ± 0.091 h. Further, the “total protein half-life in vivo” value is, setting by setting: under setting [7], 10.63 ± 0.024 h; under setting [8], 5.25 ± 0.21 h; under setting [9], 9.06 ± 0.27 h; under setting [10], 6.5 ± 0.39 h; under setting [11], 13 ± 0.96 h.
